Test results reported in the supplement of paper PMC11316812.
± gives the standard deviation of the averaged measurements.

Experiments:
hTERT-HMEC = assay: percentage of EdU-negative (G0-arrested) nuclei per well, 72 h; higher = more G0 arrest; conditions: reference: sequence is the full UniProt precursor, the tested protein was the secreted form or ectodomain
MCF7 = assay: as above; conditions: reference: sequence is the full UniProt precursor, the tested protein was the secreted form or ectodomain
[1] = protein concentration 0.01425 µM
[2] = protein concentration 0.1425 µM
[3] = protein concentration 0.02085 µM
[4] = protein concentration 0.2085 µM
[5] = protein concentration 0.0231575 µM
[6] = protein concentration 0.231575 µM
[7] = protein concentration 0.0225 µM
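Further: secreted proteins added to cultured cells, EdU pulse at the end, nuclei found by Hoechst imaging, EdU status from nuclear versus surrounding ring intensity ratio, PBS as neutral control.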

Sequence	percentage of EdU-negative (hTERT-HMEC; [7]) [%]	percentage of EdU-negative (hTERT-HMEC; protein concentration 0.225 µM) [%]	percentage of EdU-negative (MCF7; [7]) [%]	percentage of EdU-negative (MCF7; protein concentration 0.225 µM) [%]	further results
MERCPSLGVTLYALVVVLGLRATPAGGQHYLHIRPAPSDNLPLVDLIEHPDPIFDPKEKDLNETLLRSLLGGHYDPGFMATSPPEDRPGGGGGAAGGAEDLAELDQLLRQRPSGAMPSEIKGLEFSEGLAQGKKQRLSKKLRRKLQMWLWSQTFCPVLYAWNDLGSRFWPRYVKVGSCFSKRSCSVPEGMVCKPSKSVHLTVLRWRCQRRGGQRCGWIPIQYPIISECKCSC	–	–	–	–	percentage of EdU-negative (hTERT-HMEC; [1]): 4.77 ± 0.41%; percentage of EdU-negative (hTERT-HMEC; [2]): 5.81 ± 0.99%; percentage of EdU-negative (MCF7; [1]): 23.9 ± 0.44%; percentage of EdU-negative (MCF7; [2]): 25.4 ± 2.8%
MDLVLKRCLLHLAVIGALLAVGATKVPRNQDWLGVSRQLRTKAWNRQLYPEWTEAQRLDCWRGGQVSLKVSNDGPTLIGANASFSIALNFPGSQKVLPDGQVIWVNNTIINGSQVWGGQPVYPQETDDACIFPDGGPCPSGSWSQKRSFVYVWKTWGQYWQVLGGPVSGLSIGTGRAMLGTHTMEVTVYHRRGSRSYVPLAHSSSAFTITDQVPFSVSVSQLRALDGGNKHFLRNQPLTFALQLHDPSGYLAEADLSYTWDFGDSSGTLISRALVVTHTYLEPGPVTAQVVLQAAIPLTSCGSSPVPGTTDGHRPTAEAPNTTAGQVPTTEVVGTTPGQAPTAEPSGTTSVQVPTTEVISTAPVQMPTAESTGMTPEKVPVSEVMGTTLAEMSTPEATGMTPAEVSIVVLSGTTAAQVTTTEWVETTARELPIPEPEGPDASSIMSTESITGSLGPLLDGTATLRLVKRQVPLDCVLYRYGSFSVTLDIVQGIESAEILQAVPSGEGDAFELTVSCQGGLPKEACMEISSPGCQPPAQRLCQPVLPSPACQLVLHQILKGGSGTYCLNVSLADTNSLAVVSTQLIMPGQEAGLGQVPLIVGILLVLMAVVLASLIYRRRLMKQDFSVPQLPHSSSHWLRLPRIFCSCPIGENSPLLSGQQV	–	–	–	–	percentage of EdU-negative (hTERT-HMEC; [3]): 4.37 ± 0.18%; percentage of EdU-negative (hTERT-HMEC; [4]): 5.18 ± 0.52%; percentage of EdU-negative (MCF7; [3]): 25.3 ± 1.8%; percentage of EdU-negative (MCF7; [4]): 25.4 ± 2.4%
MYREWVVVNVFMMLYVQLVQGSSNEHGPVKRSSQSTLERSEQQIRAASSLEELLRITHSEDWKLWRCRLRLKSFTSMDSRSASHRSTRFAATFYDIETLKVIDEEWQRTQCSPRETCVEVASELGKSTNTFFKPPCVNVFRCGGCCNEESLICMNTSTSYISKQLFEISVPLTSVPELVPVKVANHTGCKCLPTAPRHPYSIIRRSIQIPEEDRCSHSKKLCPIDMLWDSNKCKCVLQEENPLAGTEDHSHLQEPALCGPHMMFDEDRCECVCKTPCPKDLIQHPKNCSCFECKESLETCCQKHKLFHPDTCSCEDRCPFHTRPCASGKTACAKHCRFPKEKRAAQGPHSRKNP	–	–	–	–	percentage of EdU-negative (hTERT-HMEC; [5]): 4.71 ± 0.18%; percentage of EdU-negative (hTERT-HMEC; [6]): 7.16 ± 1.6%; percentage of EdU-negative (MCF7; [5]): 27.2 ± 0.62%; percentage of EdU-negative (MCF7; [6]): 28.82 ± 0.28%
MRGPSGALWLLLALRTVLGGMEVRWCATSDPEQHKCGNMSEAFREAGIQPSLLCVRGTSADHCVQLIAAQEADAITLDGGAIYEAGKEHGLKPVVGEVYDQEVGTSYYAVAVVRRSSHVTIDTLKGVKSCHTGINRTVGWNVPVGYLVESGRLSVMGCDVLKAVSDYFGGSCVPGAGETSYSESLCRLCRGDSSGEGVCDKSPLERYYDYSGAFRCLAEGAGDVAFVKHSTVLENTDGKTLPSWGQALLSQDFELLCRDGSRADVTEWRQCHLARVPAHAVVVRADTDGGLIFRLLNEGQRLFSHEGSSFQMFSSEAYGQKDLLFKDSTSELVPIATQTYEAWLGHEYLHAMKGLLCDPNRLPPYLRWCVLSTPEIQKCGDMAVAFRRQRLKPEIQCVSAKSPQHCMERIQAEQVDAVTLSGEDIYTAGKTYGLVPAAGEHYAPEDSSNSYYVVAVVRRDSSHAFTLDELRGKRSCHAGFGSPAGWDVPVGALIQRGFIRPKDCDVLTAVSEFFNASCVPVNNPKNYPSSLCALCVGDEQGRNKCVGNSQERYYGYRGAFRCLVENAGDVAFVRHTTVFDNTNGHNSEPWAAELRSEDYELLCPNGARAEVSQFAACNLAQIPPHAVMVRPDTNIFTVYGLLDKAQDLFGDDHNKNGFKMFDSSNYHGQDLLFKDATVRAVPVGEKTTYRGWLGLDYVAALEGMSSQQCSGAAAPAPGAPLLPLLLPALAARLLPPAL	6.116 ± 0.02	26.6 ± 0.69	26.1 ± 0.62	27.8 ± 1.6	–
MAPRARRRRPLFALLLLCALLARLQVALQIAPPCTSEKHYEHLGRCCNKCEPGKYMSSKCTTTSDSVCLPCGPDEYLDSWNEEDKCLLHKVCDTGKALVAVVAGNSTTPRRCACTAGYHWSQDCECCRRNTECAPGLGAQHPLQLNKDTVCKPCLAGYFSDAFSSTDKCRPWTNCTFLGKRVEHHGTEKSDAVCSSSLPARKPPNEPHVYLPGLIILLLFASVALVAAIIFGVCYRKKGKALTANLWHWINEACGRLSGDKESSGDSCVSTHTANFGQQGACEGVLLLTLEEKTFPEDMCYPDQGGVCQGTCVGGGPYAQGEDARMLSLVSKTEIEEDSFRQMPTEDEYMDRPSQPTDQLLFLTEPGSKSTPPFSEPLEVGENDSLSQCFTGTQSTVGSESCNCTEPLCRTDWTPMSSENYLQKEVDSGHCPHWAASPSPNWADVCTGCRNPPGEDCEPLVGSPKRGPLPQCAYGMGLPPEEEASRTEARDQPEDGADGRLPSSARAGAGSGSSPGGQSPASGNVTGNSNSTFISSGQVMNFKGDIIVVYVSQTSQEGAAAAAEPMGRPVQEETLARRDSFAGNGPRFPDPCGGPEGLREPEKASRPVQEQGGAKA [Q9Y6Q6]	5.19 ± 0.68	5.83 ± 0.025	24 ± 1.9	25.6 ± 1.8	–
MKLNLVQIFFMLLMLLLGLGMGLGLGLHMATAVLEESDQPLNEFWSSDSQDKAEATEEGDGTQTTETLVLSNKEVVQPGWPEDPILGEDEVGGNKMLRASALFQSNKDYLRLDQTDRECNDMMAHKMKEPSQSCIAQYAFIHEDLNTVKAVCNSPVIACELKGGKCHKSSRPFDLTLCELSQPDQVTPNCNYLTSVIKKHIIITCNDMKRQLPTGQ [Q5GAN6]	5.66 ± 1.3	5.77 ± 0.33	27.3 ± 3.4	25.2 ± 0.41	–
MFHSSAMVNSHRKPMFNIHRGFYCLTAILPQICICSQFSVPSSYHFTEDPGAFPVATNGERFPWQELRLPSVVIPLHYDLFVHPNLTSLDFVASEKIEVLVSNATQFIILHSKDLEITNATLQSEEDSRYMKPGKELKVLSYPAHEQIALLVPEKLTPHLKYYVAMDFQAKLGDGFEGFYKSTYRTLGGETRILAVTDFEPTQARMAFPCFDEPLFKANFSIKIRRESRHIALSNMPKVKTIELEGGLLEDHFETTVKMSTYLVAYIVCDFHSLSGFTSSGVKVSIYASPDKRNQTHYALQASLKLLDFYEKYFDIYYPLSKLDLIAIPDFAPGAMENWGLITYRETSLLFDPKTSSASDKLWVTRVIAHELAHQWFGNLVTMEWWNDIWLKEGFAKYMELIAVNATYPELQFDDYFLNVCFEVITKDSLNSSRPISKPAETPTQIQEMFDEVSYNKGACILNMLKDFLGEEKFQKGIIQYLKKFSYRNAKNDDLWSSLSNSCLESDFTSGGVCHSDPKMTSNMLAFLGENAEVKEMMTTWTLQKGIPLLVVKQDGCSLRLQQERFLQGVFQEDPEWRALQERYLWHIPLTYSTSSSNVIHRHILKSKTDTLDLPEKTSWVKFNVDSNGYYIVHYEGHGWDQLITQLNQNHTLLRPKDRVGLIHDVFQLVGAGRLTLDKALDMTYYLQHETSSPALLEGLSYLESFYHMMDRRNISDISENLKRYLLQYFKPVIDRQSWSDKGSVWDRMLRSALLKLACDLNHAPCIQKAAELFSQWMESSGKLNIPTDVLKIVYSVGAQTTAGWNYLLEQYELSMSSAEQNKILYALSTSKHQEKLLKLIELGMEGKVIKTQNLAALLHAIARRPKGQQLAWDFVRENWTHLLKKFDLGSYDIRMIISGTTAHFSSKDKLQEVKLFFESLEAQGSHLDIFQTVLETITKNIKWLEKNLPTLRTWLMVNT [Q6P179]	4.8 ± 0.71	5.45 ± 0.3	25.63 ± 0.041	25.5 ± 0.38	–
MGPPSASPHRECIPWQGLLLTASLLNFWNPPTTAKLTIESMPLSVAEGKEVLLLVHNLPQHLFGYSWYKGERVDGNSLIVGYVIGTQQATPGAAYSGRETIYTNASLLIQNVTQNDIGFYTLQVIKSDLVNEEATGQFHVYQENAPGLPVGAVAGIVTGVLVGVALVAALVCFLLLAKTGRTSIQRDLKEQQPQALAPGRGPSHSSAFSMSPLSTAQAPLPNPRTAASIYEELLKHDTNIYCRMDHKAEVAS	5.43 ± 0.36	5.03 ± 0.028	25 ± 3.7	25.4 ± 1.4	–
MKPNIIFVLSLLLILEKQAAVMGQKGGSKGRLPSEFSQFPHGQKGQHYSGQKGKQQTESKGSFSIQYTYHVDANDHDQSRKSQQYDLNALHKTTKSQRHLGGSQQLLHNKQEGRDHDKSKGHFHRVVIHHKGGKAHRGTQNPSQDQGNSPSGKGISSQYSNTEERLWVHGLSKEQTSVSGAQKGRKQGGSQSSYVLQTEELVANKQQRETKNSHQNKGHYQNVVEVREEHSSKVQTSLCPAHQDKLQHGSKDIFSTQDELLVYNKNQHQTKNLNQDQQHGRKANKISYQSSSTEERRLHYGENGVQKDVSQSSIYSQTEEKAQGKSQKQITIPSQEQEHSQKANKISYQSSSTEERRLHYGENGVQKDVSQRSIYSQTEKLVAGKSQIQAPNPKQEPWHGENAKGESGQSTNREQDLLSHEQKGRHQHGSHGGLDIVIIEQEDDSDRHLAQHLNNDRNPLFT	–	–	–	–	percentage of EdU-negative (hTERT-HMEC; protein concentration 0.005 µM): 6.42 ± 0.18%; percentage of EdU-negative (hTERT-HMEC; protein concentration 0.05 µM): 6.06 ± 1.2%; percentage of EdU-negative (MCF7; protein concentration 0.005 µM): 28.4 ± 1.1%; percentage of EdU-negative (MCF7; protein concentration 0.05 µM): 25.85 ± 0.061%
